# Results published in patent publication US20210318312.
# What was measured:
# [1] = system: DLAT K259 Acetyl peptide
# [2] = system: DLAT K259 Lipoyl peptide
# Sequence of recombinant SIRT5 (Sigma, cat. #SRP0119-100UG) (chain, as listed by the source): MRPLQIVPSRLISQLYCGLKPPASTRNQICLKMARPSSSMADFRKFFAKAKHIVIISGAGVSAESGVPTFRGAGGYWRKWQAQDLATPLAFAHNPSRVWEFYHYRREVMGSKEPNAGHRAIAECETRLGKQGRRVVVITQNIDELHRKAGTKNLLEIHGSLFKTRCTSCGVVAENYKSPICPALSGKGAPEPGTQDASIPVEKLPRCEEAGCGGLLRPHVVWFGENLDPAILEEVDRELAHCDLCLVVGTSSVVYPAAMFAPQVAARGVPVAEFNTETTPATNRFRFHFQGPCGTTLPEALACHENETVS
substance,measurement,setting,value
"recombinant SIRT5 (Sigma, cat. #SRP0119-100UG)",in vitro deacylation kinetics,[1],"low, but detectable activity was measured for DLAT acetyl"
same,in vitro deacylation kinetics,[2],no activity was detected for DLAT lipoyl (SEQ ID NO: 8) reactions
